Target: T1, murine HIP polypeptide (mouse hedgehog interacting protein) (mouse, UniProt Q7TN16 16-700)
T1 construct: In the expression cloning screen the protein was expressed in cells from a mouse limb bud cDNA library plasmid; also called Mouse HIP; mouse HIP clone
T1 sequence: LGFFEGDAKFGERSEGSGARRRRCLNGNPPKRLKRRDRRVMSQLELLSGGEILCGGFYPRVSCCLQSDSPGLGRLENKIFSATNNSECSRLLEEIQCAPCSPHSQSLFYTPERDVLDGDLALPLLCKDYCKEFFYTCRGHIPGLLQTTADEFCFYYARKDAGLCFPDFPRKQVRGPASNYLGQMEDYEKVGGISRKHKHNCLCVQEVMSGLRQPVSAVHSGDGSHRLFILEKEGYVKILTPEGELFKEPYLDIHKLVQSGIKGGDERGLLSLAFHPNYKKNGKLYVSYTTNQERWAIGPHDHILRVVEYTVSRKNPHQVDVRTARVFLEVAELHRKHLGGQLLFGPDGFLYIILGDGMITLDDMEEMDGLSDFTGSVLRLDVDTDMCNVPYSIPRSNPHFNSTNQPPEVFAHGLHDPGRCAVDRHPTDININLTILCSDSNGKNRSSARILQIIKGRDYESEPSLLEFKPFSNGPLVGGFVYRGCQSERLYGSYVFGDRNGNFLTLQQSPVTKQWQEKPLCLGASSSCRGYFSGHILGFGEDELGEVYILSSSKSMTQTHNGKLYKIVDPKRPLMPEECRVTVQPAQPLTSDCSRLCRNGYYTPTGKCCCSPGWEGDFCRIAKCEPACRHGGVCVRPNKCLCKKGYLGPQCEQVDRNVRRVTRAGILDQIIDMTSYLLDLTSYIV
Assay: ligand-receptor binding study

- Kd: ~1 nM
B1: Desert hedgehog (Dhh) (ligand)
chain: not shown

Reference: patent US20030143595A1 (Harvard, published 2003)
